Reference: the supplement of paper PMC9112550, “Optimization of the antimicrobial peptide Bac7 by deep mutational scanning” (BMC Biology, 2022)

These sequences were tested on Escherichia coli TOP10 (assay: shrunken log2 fold change of peptide-encoding DNA abundance (4.5 h post-induction vs induction); higher = less antimicrobial activity (less host growth inhibition)). Conditions: time post-induction: 4.5 h; library: site-saturation at positions 5, 18, 19, 20.
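Also: peptides expressed intracellularly from a pBAD plasmid library in pooled LB shake-flask culture, induced with 0.3% L-arabinose, DNA abundance read by NGS, three biological replicates, DESeq2 with apeglm shrinkage.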

Row | Sequence | shrunken log2 fold change
1 | RRIRCRPPRLPRPRPRPSLVPRP | -0.399
2 | RRIRCRPPRLPRPRPRPERFPRP | 0.00138
3 | RRIRKRPPRLPRPRPRPQWQPRP | 0.0827
4 | RRIRDRPPRLPRPRPRPYAFPRP | -0.187
5 | RRIRTRPPRLPRPRPRPHHMPRP | -0.321
6 | RRIRDRPPRLPRPRPRPCNNPRP | -0.931
7 | RRIRARPPRLPRPRPRPYRPPRP | -0.179
8 | RRIRERPPRLPRPRPRPQPTPRP | 0.234
9 | RRIRQRPPRLPRPRPRPWHKPRP | -0.334
10 | RRIRKRPPRLPRPRPRPLCCPRP | 0.104
11 | RRIRERPPRLPRPRPRPVNTPRP | -0.34
12 | RRIRQRPPRLPRPRPRPQWRPRP | 0.419
13 | RRIRLRPPRLPRPRPRPIDLPRP | -0.0804
14 | RRIRDRPPRLPRPRPRPSVRPRP | 0.0325
15 | RRIRWRPPRLPRPRPRPFSPPRP | 0.0392
16 | RRIRHRPPRLPRPRPRPCQQPRP | -0.0541
17 | RRIRYRPPRLPRPRPRPYFMPRP | -1.17
18 | RRIRTRPPRLPRPRPRPNPWPRP | 0.0694
19 | RRIRPRPPRLPRPRPRPSFVPRP | -0.436
20 | RRIRRRPPRLPRPRPRPHETPRP | 1.07

Row | Sequence | shrunken log2 fold change
21 | RRIRIRPPRLPRPRPRPLKCPRP | 0.0563
22 | RRIRIRPPRLPRPRPRPFHQPRP | -0.961
23 | RRIRCRPPRLPRPRPRPPQRPRP | 0.94
24 | RRIRHRPPRLPRPRPRPNQSPRP | -0.3
25 | RRIRVRPPRLPRPRPRPMRCPRP | 0.204
26 | RRIRVRPPRLPRPRPRPQCLPRP | -0.0868
27 | RRIRFRPPRLPRPRPRPHTIPRP | -0.745
28 | RRIRSRPPRLPRPRPRPLTYPRP | -0.132
29 | RRIRERPPRLPRPRPRPSGCPRP | 0.0787
30 | RRIRTRPPRLPRPRPRPYYHPRP | -0.581
31 | RRIRMRPPRLPRPRPRPRKSPRP | 0.902
32 | RRIRRRPPRLPRPRPRPNWPPRP | 0.118
33 | RRIRRRPPRLPRPRPRPPQRPRP | 1.64
34 | RRIRNRPPRLPRPRPRPPKWPRP | 0.411
35 | RRIRSRPPRLPRPRPRPNLTPRP | -0.15
36 | RRIRWRPPRLPRPRPRPRIIPRP | 0.136
37 | RRIRDRPPRLPRPRPRPFYGPRP | -0.108
38 | RRIRQRPPRLPRPRPRPGYVPRP | -0.116
39 | RRIRRRPPRLPRPRPRPWCFPRP | -0.0808
40 | RRIRPRPPRLPRPRPRPTPAPRP | 0.618

Row | Sequence | shrunken log2 fold change
41 | RRIRARPPRLPRPRPRPSCLPRP | -0.0189
42 | RRIRCRPPRLPRPRPRPQSCPRP | 0.0547
43 | RRIRWRPPRLPRPRPRPCMTPRP | 0.317
44 | RRIRDRPPRLPRPRPRPQLYPRP | -0.162
45 | RRIRMRPPRLPRPRPRPEGCPRP | 3.93
46 | RRIRGRPPRLPRPRPRPVCPPRP | 0.385
47 | RRIRMRPPRLPRPRPRPVTAPRP | 0.57
48 | RRIRYRPPRLPRPRPRPQVMPRP | -0.0105
49 | RRIRWRPPRLPRPRPRPEGDPRP | 0.166
50 | RRIRMRPPRLPRPRPRPIPLPRP | 0.00552
51 | RRIRHRPPRLPRPRPRPFCDPRP | 0.128
52 | RRIRERPPRLPRPRPRPQDWPRP | -0.206
53 | RRIRQRPPRLPRPRPRPAMVPRP | 0.206
54 | RRIRARPPRLPRPRPRPNPAPRP | 0.796
55 | RRIRDRPPRLPRPRPRPISKPRP | 0.002
56 | RRIRPRPPRLPRPRPRPLESPRP | -0.0234
57 | RRIRCRPPRLPRPRPRPYFCPRP | -0.514
58 | RRIRIRPPRLPRPRPRPKIAPRP | 0.00729
59 | RRIRHRPPRLPRPRPRPGMPPRP | 0.47
60 | RRIRTRPPRLPRPRPRPRYNPRP | -0.712
